The results in this text go back to paper PMC9887734, “Meeting abstracts from the 10th International Conference on cGMP: Generators, Effectors and Therapeutic Implications” (Journal of Translational Medicine, 2023).

Data set [1] deals with the molecule itself. As to the kind of experiment: cryo-EM structure; human cone photoreceptor CNG channel CNGA3/CNGB3 in the apo state.
In data set [2] the target is T1, CNGB3 subunit of the human cone photoreceptor CNG channel (human, UniProt Q9NQW8 1-809).
T1 construct: CNGB3, human cone photoreceptor cyclic nucleotide-gated channel subunit; One copy stands in the CNGA3/CNGB3 channel
T1 sequence (looked up): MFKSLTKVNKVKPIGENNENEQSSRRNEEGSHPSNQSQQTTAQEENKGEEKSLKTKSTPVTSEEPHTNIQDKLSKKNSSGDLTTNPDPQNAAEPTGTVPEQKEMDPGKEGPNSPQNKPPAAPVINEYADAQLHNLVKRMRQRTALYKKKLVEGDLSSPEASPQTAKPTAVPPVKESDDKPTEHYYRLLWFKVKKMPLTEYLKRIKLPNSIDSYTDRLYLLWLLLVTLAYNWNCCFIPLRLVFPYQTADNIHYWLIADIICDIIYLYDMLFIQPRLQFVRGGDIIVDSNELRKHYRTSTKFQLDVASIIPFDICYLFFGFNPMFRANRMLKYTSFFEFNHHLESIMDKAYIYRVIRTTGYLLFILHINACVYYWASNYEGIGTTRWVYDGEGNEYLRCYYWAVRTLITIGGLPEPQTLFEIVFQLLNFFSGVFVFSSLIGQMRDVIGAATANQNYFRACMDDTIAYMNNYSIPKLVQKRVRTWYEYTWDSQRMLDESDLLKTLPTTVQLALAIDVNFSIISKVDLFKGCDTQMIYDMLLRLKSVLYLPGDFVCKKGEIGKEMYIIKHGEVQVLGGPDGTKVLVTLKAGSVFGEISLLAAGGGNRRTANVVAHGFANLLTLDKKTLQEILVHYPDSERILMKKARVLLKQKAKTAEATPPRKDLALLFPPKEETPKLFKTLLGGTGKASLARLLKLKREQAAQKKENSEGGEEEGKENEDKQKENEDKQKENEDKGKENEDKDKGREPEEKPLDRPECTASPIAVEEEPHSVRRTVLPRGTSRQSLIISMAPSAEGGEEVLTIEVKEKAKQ
The data set is described as above. As to conditions: both partners purified.

B1: CNGA3 subunit of the human cone photoreceptor CNG channel (natural protein, UniProt Q16281 1-694, looked up)
chain: MAKINTQYSHPSRTHLKVKTSDRDLNRAENGLSRAHSSSEETSSVLQPGIAMETRGLADSGQGSFTGQGIARLSRLIFLLRRWAARHVHHQDQGPDSFPDRFRGAELKEVSSQESNAQANVGSQEPADRGRSAWPLAKCNTNTSNNTEEEKKTKKKDAIVVDPSSNLYYRWLTAIALPVFYNWYLLICRACFDELQSEYLMLWLVLDYSADVLYVLDVLVRARTGFLEQGLMVSDTNRLWQHYKTTTQFKLDVLSLVPTDLAYLKVGTNYPEVRFNRLLKFSRLFEFFDRTETRTNYPNMFRIGNLVLYILIIIHWNACIYFAISKFIGFGTDSWVYPNISIPEHGRLSRKYIYSLYWSTLTLTTIGETPPPVKDEEYLFVVVDFLVGVLIFATIVGNVGSMISNMNASRAEFQAKIDSIKQYMQFRKVTKDLETRVIRWFDYLWANKKTVDEKEVLKSLPDKLKAEIAINVHLDTLKKVRIFQDCEAGLLVELVLKLRPTVFSPGDYICKKGDIGKEMYIINEGKLAVVADDGVTQFVVLSDGSYFGEISILNIKGSKSGNRRTANIRSIGYSDLFCLSKDDLMEALTEYPEAKKALEEKGRQILMKDNLIDEELARAGADPKDLEEKVEQLGSSLDTLQTRFARLLAEYNATQMKMKQRLSQLESQVKGGGDKPLADGEVPGDATKTEDKQQ
notes: CNGA3, human cone photoreceptor cyclic nucleotide-gated channel subunit; Three copies stand in the CNGA3/CNGB3 channel whose cryo-EM structure (apo state) is reported
As to B1, in data set [1], the binding result is “binds”. Besides, the stoichiometry N (commonly the number of molecules, sites or subunits per partner or assembly) in data set [2] is 3 CNGA3 per CNGB3.
